“And” between values parts separate entries of the source, which are not always exact repeats. Identical values can stand only once.
T1: human CC chemokine receptor 4 (CCR4) (human, UniProt P51679 1-360)
T1 construct: whole, on cells; Always presented on cells; also called CD194; human CCR4
T1 sequence (looked up): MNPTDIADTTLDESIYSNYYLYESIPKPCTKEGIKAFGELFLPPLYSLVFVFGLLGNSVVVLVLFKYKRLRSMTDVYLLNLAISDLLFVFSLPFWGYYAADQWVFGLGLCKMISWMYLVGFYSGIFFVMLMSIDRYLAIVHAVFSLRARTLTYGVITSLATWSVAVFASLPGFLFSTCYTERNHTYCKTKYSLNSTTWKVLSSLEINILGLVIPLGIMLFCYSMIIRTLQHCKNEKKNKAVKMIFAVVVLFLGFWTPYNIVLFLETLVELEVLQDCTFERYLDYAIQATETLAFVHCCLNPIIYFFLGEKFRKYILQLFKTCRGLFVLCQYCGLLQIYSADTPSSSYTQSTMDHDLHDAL

B1: macrophage-derived chemokine (MDC) (ligand, UniProt O00626 25-93, looked up)
chain: GPYGANMEDSVCCRDYVRYRLPLRVVKHFYWTSDSCPRPGVVLLTFRDKEICADPRVPWVKMILNKLSQ
notes: also called CCL22; biotinylated MDC
B2: thymus and activation regulated chemokine (TARC) (ligand, UniProt Q92583 24-94, looked up)
chain: ARGTNVGRECCLEYFKGAIPLRKLKTWYQTSEDCSRDAIVFVTVQGRAICSDPNNKRVKNAVKYLQSLERS
notes: also called CCL17; biotinylated TARC

What was measured:
[1] = target: T1, human CC chemokine receptor 4 (CCR4); assay: competition flow cytometry on CCRF-CEM cells: unlabelled competitor against ca. 20 nM biotinylated TARC, without BSA, streptavidin-PE [c]
Experimental: (§1) The competition binding assays were performed with biotinylated MDC or biotinylated TARC on DT-40-CCR4+ and CCRF-CEM cells. DT40 and CCRF-CEM cells were cultured as described in Example 2. TARC and MDC were biotinylated using standard procedures. The biotinylation process causes some losses, so the concentrations of biotinylated MDC and TARC recited herein are approximate.
(§2) The cells were harvested from culture flasks, washed 2 times with PBS (400×g, 5 min, 4° C.) and resuspended in PBS containing 0.2% BSA and 0.09% NaN3. 1×10^5 cells per well were aliquoted into V-shaped 96-well plates (Greiner Bio-One, Frikenhausen, Germany). Cells were centrifuged (400×g, 5 min, 4° C.) and resuspended in 50 μl IgG, single chain or unlabeled ligand (1:10 dilution series starting on 100/500/26, 4 μg/ml) mixed with a fixed concentration of biotinylated ligand (10 or 20 nM, see legend to FIG. 24). The cells were incubated for 2 hours at 4° C. and mixed with a pipette every 45 min. The cells were washed three times with 150 μl PBS with 0.2% BSA and 0.09% NaN3 and stained with 3 μg/ml streptavidin PE (BD Biosciences) for 45 minutes at 4° C. […] Apparent binding affinities (KD) were calculated according to the following equation derived from previously described methods (Kipriyanov et al, 1997b; Schodin & Kranz, 1993): […]

[2] = target: T1, human CC chemokine receptor 4 (CCR4); assay: competition flow cytometry on CCRF-CEM cells: unlabelled competitor against ca. 20 nM biotinylated TARC, with 1 % BSA, streptavidin-PE [d]
Experimental: as §1, §2

[3] = target: T1, human CC chemokine receptor 4 (CCR4); assay: competition flow cytometry on DT-40-CCR4+ cells: unlabelled competitor against ca. 20 nM biotinylated TARC, without BSA, streptavidin-PE [a]
Experimental: as §1, §2

[4] = target: T1, human CC chemokine receptor 4 (CCR4); assay: flow cytometry competition on DT-40-CCR4+ cells; unlabelled MDC titrated, competitor biotinylated MDC (ca. 10 nM)
Experimental: as §1, §2

[5] = target: T1, human CC chemokine receptor 4 (CCR4); assay: calculated from the IC50; DT-40-CCR4+ cells, competitor biotinylated MDC
Experimental: as §1, §2

[6] = target: T1, human CC chemokine receptor 4 (CCR4); assay: competition flow cytometry on DT-40-CCR4+ cells: unlabelled competitor against ca. 20 nM biotinylated TARC, with 1 % BSA, streptavidin-PE [b]
Experimental: as §1, §2

[7] = target: T1, human CC chemokine receptor 4 (CCR4); assay: competition flow cytometry: unlabelled competitor against a fixed amount of biotinylated MDC; cell line not named on the sheet or in the legend
[8] = target: T1, human CC chemokine receptor 4 (CCR4); assay: calculated from the IC50; CCRF-CEM cells, competitor biotinylated MDC
Experimental: as §1, §2

[9] = target: T1, human CC chemokine receptor 4 (CCR4); assay: flow cytometry competition on CCRF-CEM cells; unlabelled TARC titrated, competitor biotinylated TARC (ca. 20 nM)
Experimental: as §1, §2

[10] = target: T1, human CC chemokine receptor 4 (CCR4); assay: flow cytometry competition on DT-40-CCR4+ cells; unlabelled TARC titrated, competitor biotinylated TARC (ca. 20 nM)
Experimental: as §1, §2

[11] = target: T1, human CC chemokine receptor 4 (CCR4); assay: competition flow cytometry: unlabelled competitor against a fixed amount of biotinylated TARC; cell line not named on the sheet or in the legend

Binder | IC50 (read off the curve) [1] [nM] | IC50 (read off the curve) [2] [nM] | IC50 (read off the curve) [3] [nM] | IC50 [4] [nM] | Kd [5] [nM] | IC50 (read off the curve) [6] [nM] | IC50 (read off the curve) [7] [nM] | Kd [8] [nM] | IC50 [9] | IC50 [10] | IC50 (read off the curve) [11] [nM]
B1 | ~60 | ~7 | ~30 | 10.8 | 0.19 | ~30 | ~20 | 0.18 |  |  | 
B2 |  |  |  |  |  |  |  |  | 43.4 nM and 31.8 nM | 40.9 nM and 34.6 nM | ~0.3

Source: patent US20160208003A1 (AFFITECH RESEARCH, published 2016)
